Test results as given in publication PMC4103857, “Specific Interaction with Cardiolipin Triggers Functional Activation of Dynamin-Related Protein 1” (PLoS ONE, 2014).
Residue numbers refer to the chain shown, from its start. Values joined by “and” are separate entries in the source; they are usually repeats but may differ in a detail not shown here. Equal entries are not always repeated. Values belong to the molecule of their own block, whether it stands above or below them.

Experiments:
[1] = target: Dynamin-Related Protein 1 (Drp1) isoform 2 (human); assay: SEC; gel filtration of the purified untagged isoforms; data not shown
[2] = target: the molecule itself; assay: as above
[3] = target: the molecule itself; assay: SEC; Drp1 (1 uM) incubated with GTP (1 mM) without liposomes in KCl buffer with 4 mM MgCl2, 30 min, 37 C; Sephadex S200; fractions immunoblotted with anti-Drp1

stoichiometry N [1]: 2 and 4
Molecule: Dynamin-Related Protein 1 (Drp1) isoform 2 (natural protein)

B1: Dynamin-Related Protein 1 (Drp1) isoform 3 (natural protein, human, UniProt O00429-4 1-699, looked up)
chain: MEALIPVINKLQDVFNTVGADIIQLPQIVVVGTQSSGKSSVLESLVGRDLLPRGTGIVTRRPLILQLVHVSQEDKRKTTGEENGVEAEEWGKFLHTKNKLYTDFDEIRQEIENETERISGNNKGVSPEPIHLKIFSPNVVNLTLVDLPGMTKVPVGDQPKDIELQIRELILRFISNPNSIILAVTAANTDMATSEALKISREVDPDGRRTLAVITKLDLMDAGTDAMDVLMGRVIPVKLGIIGVVNRSQLDINNKKSVTDSIRDEYAFLQKKYPSLANRNGTKYLARTLNRLLMHHIRDCLPELKTRINVLAAQYQSLLNSYGEPVDDKSATLLQLITKFATEYCNTIEGTAKYIETSELCGGARICYIFHETFGRTLESVDPLGGLNTIDILTAIRNATGPRPALFVPEVSFELLVKRQIKRLEEPSLRCVELVHEEMQRIIQHCSNYSTQELLRFPKLHDAIVEVVTCLLRKRLPVTNEMVHNLVAIELAYINTKHPDFADACGLMNNNIEEQRRNRLARELPSAVSRDKVASGGGGVGDGVQEPTTGNWRGMLKTSKAEELLAEEKSKPIPIMPASPQKGHAVNLLDVPVPVARKLSAREQRDCEVIERLIKSYFLIVRKNIQDSVPKAVMHFLVNHVKDTLQSELVGQLYKSSLLDDLLTESEDMAQRRKEAADMLKALQGASQIIAEIRETHLW
notes: ORF amplified by PCR and cloned into pTYB1; numbers count on: isoform 3; also called Variant 3; Isoform-3 WT; source: E. coli Rosetta, purified (chitin resin with thiol-induced cleavage, Q sepharose, Sephadex S200)
stoichiometry N [2]: 2 and 4

B2: Drp1 isoform 3 K557-560-569-571A (4KA mutant) (natural protein, human, UniProt O00429-4 1-699, looked up)
chain: B1 chain with K557A, K560A, K569A, K571A
notes: Dynamin-related protein 1 (Drp1), human, splice variant 3 (lacking 37 residues in the B insert), all four B insert lysines replaced by alanine; numbers count on: isoform 3; also called Drp1-4KA; Drp1 4KA mutant; source: E. coli Rosetta, purified (chitin resin with thiol-induced cleavage, Q sepharose, Sephadex S200)
binding result [3]: binds
